From patent publication US8129149B1, “Rapid and sensitive method to measure endonuclease activity” (The United States of America as represented by the …, priority 2008, dated 2012)

Molecular target: T1, Recombinant APE1 (Homo sapiens, UniProt P27695)
T1 construct: purchased NEW ENGLAND BIOLABS
Assay: APE activity assay: APE cleavage of the substrate oligonucleotide, detected by Taq polymerase extension and real-time PCR
Assay type: biochemical
Details: well A04; Substrate DNA and Template DNA with APE
Experimental: Recombinant APE1 at 10,000 units/ml in 50% glycerol was purchased from NEW ENGLAND BIOLABS. One unit is defined as the amount of enzyme required to hydrolyze 20 pmol of a 34 bp oligonucleotide duplex containing a single AP site in a 10 ul reaction volume over one hour at 37° C. The reaction buffer consisted of 50 mM potassium acetate, 20 mM Tris-acetate, 10 mM magnesium acetate (pH 7.9) and 1 mM dithiothreitol.
All oligonucleotides, primers and probes were purchased from GENE LINK, INC. (Hawthorne, N.Y.). The two oligonucleotides that are specific to this technique, are designated the substrate and the template. The oligonucleotide with sequence 5′-GGGGTTTTGGGTTTTTTTAATTTTAGGTTGTGGTTGTGGTTGTCGGXGACGTGTTGGTTTTT/3ddC/3′ (SEQ. ID No. 1) serving as the substrate for APE contains the tetrahydrofuran, an abasic analog (X), and a 3′ dideoxy-C to prevent extension by DNA polymerase. […]
Real-time PCR was performed using a BIO-RAD LABORATORIES (Hercules, Calif.) ICYCLER using BIO-RAD LABORATORIES IQTM SUPERMIX. Cycle times were an initial step at 95° C. for 10 minutes followed by an amplification program of 50 cycles of 3 seconds at 95° C., 5 seconds at 61° C., and 20 seconds at 72° C. with fluorescence acquisition in relative florescent units at the end of each extension. […]

T1 sequence (P27695 whole entry): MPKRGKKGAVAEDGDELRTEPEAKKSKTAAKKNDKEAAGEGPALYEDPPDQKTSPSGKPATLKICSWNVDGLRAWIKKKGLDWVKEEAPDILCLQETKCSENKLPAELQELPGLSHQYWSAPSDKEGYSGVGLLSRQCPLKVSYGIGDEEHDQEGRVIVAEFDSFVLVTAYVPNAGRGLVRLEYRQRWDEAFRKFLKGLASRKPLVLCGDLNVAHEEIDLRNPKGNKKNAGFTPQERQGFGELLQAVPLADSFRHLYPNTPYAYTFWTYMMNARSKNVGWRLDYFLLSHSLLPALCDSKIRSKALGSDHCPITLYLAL

B1: 5′-GGGGTTTTGGGTTTTTTTAATTTTAGGTTGTGGTTGTGGTTGTCGGXGACGTGTTGGTTTTT/3ddC/3′ (nucleic acid)
chain: GGGGTTTTGGGTTTTTTTAATTTTAGGTTGTGGTTGTGGTTGTCGGGACGTGTTGGTTTTT
modifications: tetrahydrofuran abasic site; 3' dideoxy-C; SITE (46)...(47) Tetrahydrofuran is used to modify site 46 and 47. Serves as substrate for APE. Substrate is a commercial product. The 3′ end is modified by 3ddc/3′ to prevent extension by DNA polymerase.Chemically Synthesized
notes: substrate for APE; contains the tetrahydrofuran, an abasic analog (X), and a 3′ dideoxy-C to prevent extension by DNA polymerase
  CT of real-time PCR amplification: 26.3
